Columns and labels:
[1] = molecular target: Rv0535 (M. tuberculosis methylthioadenosine phosphorylase, MTAP) (Mycobacterium tuberculosis, UniProt O06401); assay: HPLC cleavage assay at […]; format: biochemical
[2] = system: Nc1ncnc2c1ncn2[C@@H]1O[C@H](CO)[C@@H](O)[C@H]1O; assay: purified protein; conditions: phosphate
[3] = system: CSC[C@H]1O[C@@H](n2cnc3c(N)ncnc32)[C@H](O)[C@@H]1O; assay: purified protein; conditions: phosphate

Sequence of Rv0535 (M. tuberculosis methylthioadenosine phosphorylase, MTAP) (O06401 whole entry): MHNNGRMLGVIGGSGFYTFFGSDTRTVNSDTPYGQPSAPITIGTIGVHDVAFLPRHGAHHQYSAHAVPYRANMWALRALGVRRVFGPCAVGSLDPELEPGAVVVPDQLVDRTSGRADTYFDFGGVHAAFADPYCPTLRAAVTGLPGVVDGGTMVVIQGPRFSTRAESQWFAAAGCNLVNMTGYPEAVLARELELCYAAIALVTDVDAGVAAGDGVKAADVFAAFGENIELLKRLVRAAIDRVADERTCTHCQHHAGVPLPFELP

Nc1ncnc2c1ncn2[C@@H]1O[C@H](CSCC[C@H](N)C(=O)O)[C@@H](O)[C@H]1O [S-Adenosyl-L-homocysteine]
Enzyme Activity (nmoles mg^-1 hr^-1) ^a [1]: 800 ± 100 nmol/mg/h

Rv0535 (M. tuberculosis methylthioadenosine phosphorylase, MTAP) (Mycobacterium tuberculosis H37Rv)
Km [2]: 1700 ± 200 µM | kcat [3]: 0.4 ± 0.2 s⁻¹

From PMC3288397 (2012)
